We go through 5 molecules from article PMC10397247.

Where two headings read alike, the source gives them in different places.

For one experiment, the target named is GCN2_T. The experiment is described as follows: two-hybrid library CCmax.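 Note: natural log of median RNA to DNA barcode read ratio; higher means stronger binding.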
In the next experiment the target is T1, P12-AA.
T1 chain: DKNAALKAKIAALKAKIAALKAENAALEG
The experiment is described as follows: two-hybrid library CCmax.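 Note: natural log of median RNA to DNA barcode read ratio; higher means stronger binding.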 As to conditions: mean of both orientations.

A further experiment has as its target T2, AP7-AA.
T2 chain: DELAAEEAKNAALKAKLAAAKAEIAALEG
The experiment is described as follows: two-hybrid library CCmax.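 Note: natural log of median RNA to DNA barcode read ratio; higher means stronger binding.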

Another experiment has as its target T3, AP4-AA.
T3 chain: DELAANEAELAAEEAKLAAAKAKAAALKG
The experiment is described as follows: two-hybrid library CCmax.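 Note: natural log of median RNA to DNA barcode read ratio; higher means stronger binding.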 As to conditions: mean of both orientations.

The target in another experiment is T4, P4-AA.
T4 chain: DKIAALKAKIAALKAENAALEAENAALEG
In words: two-hybrid library CCmax.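 Note: natural log of median RNA to DNA barcode read ratio; higher means stronger binding.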 As to conditions: mean of both orientations.

Another experiment has as its target T5, P11-AA.
T5 chain: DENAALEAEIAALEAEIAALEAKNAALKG
In words: two-hybrid library CCmax.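 Note: natural log of median RNA to DNA barcode read ratio; higher means stronger binding.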 As to conditions: mean of both orientations.

The next experiment has as its target T6, AP5-AA.
T6 chain: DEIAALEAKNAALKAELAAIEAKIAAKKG
The experiment is described as follows: two-hybrid library CCmax. As to conditions: mean of both orientations.

The target of another experiment is T7, AP6-AA.
T7 chain: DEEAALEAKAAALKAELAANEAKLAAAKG
In words: two-hybrid library CCmax. As to conditions: mean of both orientations.

Another experiment addresses T8, P9-AA.
T8 chain: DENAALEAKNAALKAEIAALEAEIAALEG
In words: two-hybrid library CCmax. As to conditions: mean of both orientations.

In the next experiment the target is T9, P3-AA.
T9 chain: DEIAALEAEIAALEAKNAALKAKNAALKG
In words: two-hybrid library CCmax. As to conditions: mean of both orientations.

Another experiment has as its target T10, P7-AA.
T10 chain: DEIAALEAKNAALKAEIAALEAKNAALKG
The experiment is described as follows: two-hybrid library CCmax. As to conditions: mean of both orientations.

Another experiment concerns the target T11, P10-AA.
T11 chain: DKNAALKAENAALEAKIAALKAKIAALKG
In words: two-hybrid library CCmax. As to conditions: mean of both orientations.

In the next experiment the target is T12, AP3-AA.
T12 chain: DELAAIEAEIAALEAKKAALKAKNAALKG
The experiment is described as follows: two-hybrid library CCmax.

The target in the next experiment is T13, P2-AA.
T13 chain: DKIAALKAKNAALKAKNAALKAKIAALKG
In words: two-hybrid library CCmax. As to conditions: mean of both orientations.

The next experiment has as its target T14, AP8-AA.
T14 chain: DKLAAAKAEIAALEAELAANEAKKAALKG
In words: two-hybrid library CCmax. As to conditions: mean of both orientations.

The next experiment concerns the target T15, P8-AA.
T15 chain: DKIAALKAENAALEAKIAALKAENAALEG
The experiment is described as follows: two-hybrid library CCmax. As to conditions: mean of both orientations.

For a further experiment, the target named is T16, P1-AA.
T16 chain: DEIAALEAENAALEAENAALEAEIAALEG
The experiment is described as follows: two-hybrid library CCmax. As to conditions: mean of both orientations.

Another experiment deals with T17, 4H3497-bH.
T17 chain: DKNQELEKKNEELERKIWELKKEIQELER
In words: two-hybrid library CCNG1.

The target of the next experiment is T18, 4H3175-bH.
T18 chain: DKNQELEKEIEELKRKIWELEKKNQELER
In words: two-hybrid library CCNG1.

A further experiment addresses T19, 4H626-bH.
T19 chain: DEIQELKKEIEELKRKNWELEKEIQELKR
The experiment is described as follows: two-hybrid library CCNG1.

In another experiment the target is T20, 4H3613-bH.
T20 chain: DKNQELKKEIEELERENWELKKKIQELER
The experiment is described as follows: two-hybrid library CCNG1.

For a further experiment, the target named is T21, 4H906-bH.
T21 chain: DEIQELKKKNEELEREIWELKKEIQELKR
The experiment is described as follows: two-hybrid library CCNG1.

For a further experiment, the target named is T22, 4H607-bH.
T22 chain: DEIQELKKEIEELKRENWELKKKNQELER
The experiment is described as follows: two-hybrid library CCNG1.

The target in the next experiment is T23, 4H3162-bH.
T23 chain: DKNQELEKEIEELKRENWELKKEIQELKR
In words: two-hybrid library CCNG1.

A further experiment deals with T24, 4H3628-bH.
T24 chain: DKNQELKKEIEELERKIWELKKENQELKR
The experiment is described as follows: two-hybrid library CCNG1.

The target in another experiment is T25, 4H591-bH.
T25 chain: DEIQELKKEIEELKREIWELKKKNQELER
In words: two-hybrid library CCNG1.

Another experiment has as its target T26, 4H3462-bH.
T26 chain: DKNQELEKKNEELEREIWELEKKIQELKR
The experiment is described as follows: two-hybrid library CCNG1.

The target of a further experiment is T27, 4H3298-bH.
T27 chain: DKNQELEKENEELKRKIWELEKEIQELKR
The experiment is described as follows: two-hybrid library CCNG1.

The target of the next experiment is T28, 4H3926-bH.
T28 chain: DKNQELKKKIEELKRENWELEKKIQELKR
The experiment is described as follows: two-hybrid library CCNG1.

The target in a further experiment is T29, 4H3277-bH.
T29 chain: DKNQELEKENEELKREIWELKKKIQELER
In words: two-hybrid library CCNG1.

The target of the next experiment is T30, 4H3858-bH.
T30 chain: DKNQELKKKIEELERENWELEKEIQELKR
The experiment is described as follows: two-hybrid library CCNG1.

Another experiment deals with T31, 4H3414-bH.
T31 chain: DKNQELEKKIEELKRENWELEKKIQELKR
The experiment is described as follows: two-hybrid library CCNG1.

The target in a further experiment is T32, 4H3628-bN.
T32 chain: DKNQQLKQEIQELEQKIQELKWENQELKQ
In words: two-hybrid library CCNG1.

The next experiment addresses T33, 4H3817-bH.
T33 chain: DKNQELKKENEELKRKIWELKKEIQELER
In words: two-hybrid library CCNG1.

The next experiment has as its target T34, 4H850-bH.
T34 chain: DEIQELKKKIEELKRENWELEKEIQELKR
The experiment is described as follows: two-hybrid library CCNG1.

The target in the next experiment is T35, 4H1985-bH.
T35 chain: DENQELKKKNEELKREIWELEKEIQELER
In words: two-hybrid library CCNG1.

The target in a further experiment is T36, 4H3974-bH.
T36 chain: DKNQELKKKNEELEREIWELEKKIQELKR
The experiment is described as follows: two-hybrid library CCNG1.

The target of a further experiment is T37, 4H570-bH.
T37 chain: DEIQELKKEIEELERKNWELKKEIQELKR
The experiment is described as follows: two-hybrid library CCNG1.

The target of a further experiment is T38, 4H1899-bH.
T38 chain: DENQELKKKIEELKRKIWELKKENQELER
In words: two-hybrid library CCNG1.

The next experiment deals with T39, AP2-AA.
T39 chain: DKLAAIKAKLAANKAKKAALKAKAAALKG
In words: two-hybrid library CCmax.

In the next experiment the target is T40, 4H584-bH.
T40 chain: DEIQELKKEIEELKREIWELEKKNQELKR
In words: two-hybrid library CCNG1.

The target of a further experiment is T41, 4H72-bH.
T41 chain: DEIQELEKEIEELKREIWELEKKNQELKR
The experiment is described as follows: two-hybrid library CCNG1.

Another experiment addresses T42, 4H3638-bH.
T42 chain: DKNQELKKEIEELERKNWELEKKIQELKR
In words: two-hybrid library CCNG1.

Another experiment deals with T43, 4H3129-bH.
T43 chain: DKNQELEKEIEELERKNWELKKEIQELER
The experiment is described as follows: two-hybrid library CCNG1.

For a further experiment, the target named is T44, 4H3172-bH.
T44 chain: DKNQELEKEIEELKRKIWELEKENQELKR
In words: two-hybrid library CCNG1.

For the next experiment, the target named is T45, 4H619-bH.
T45 chain: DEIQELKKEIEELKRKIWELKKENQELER
The experiment is described as follows: two-hybrid library CCNG1.

In another experiment the target is T46, 4H3631-bH.
T46 chain: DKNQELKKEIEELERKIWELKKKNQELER
In words: two-hybrid library CCNG1.

DELAAIEAEIAALEAKKAALKAKNAALKG [AP3-AA]: the interaction score with GCN2_T is -1.8; with P12-AA it was -1.03; with AP7-AA (mean of both orientations), -1.93; in the experiment with AP4-AA it was -1.84; with P4-AA, 1.61; in the experiment with P11-AA, -1.01. In addition, the interaction score in the experiment with AP5-AA was -1.45; in the experiment with AP6-AA, -1.78; with P9-AA, -1.41; with P3-AA, -1.84; in the experiment with P7-AA it was -1.23; with P10-AA, -0.602. Besides, the interaction score with AP3-AA was 0.89; in the experiment with P2-AA, -1.75; in the experiment with AP8-AA it was -1.48; in the experiment with P8-AA, -1.45; with P1-AA it was -2.22.

DKNQELEKEIEELKRENWELKKEIQELKR [4H3162-bH]: the interaction score in the experiment with 4H3497-bH was -0.619; in the experiment with 4H3175-bH, -1.88; with 4H626-bH it was -1.98; with 4H3613-bH, 0.334; with 4H906-bH, -0.0502; with 4H607-bH, -2.63. Besides, the interaction score is 0.549 with 4H3162-bH; -1.68 in the experiment with 4H3628-bH; -0.636 in the experiment with 4H591-bH; -0.66 with 4H3462-bH; -0.633 with 4H3298-bH; 1.52 with 4H3926-bH. The same molecule registered an interaction score in the experiment with 4H3277-bH of -0.247.

With DENQELKKKIEELKRKIWELKKENQELER [4H1899-bH], the interaction score is -0.0187 with 4H3858-bH; 0.766 with 4H3497-bH; 0.0491 in the experiment with 4H3175-bH; -1.98 with 4H626-bH; -0.355 with 4H3613-bH; -0.169 with 4H3414-bH. The interaction score with 4H3628-bN was 0.735; with 4H906-bH, -0.666; with 4H3817-bH, 0.356; with 4H3162-bH it was -0.289; with 4H3628-bH, 1.19; with 4H591-bH it was -0.968. Also, the interaction score in the experiment with 4H3462-bH is 0.0285; with 4H3298-bH, -0.203; in the experiment with 4H850-bH, -0.44; with 4H3926-bH, -0.236; with 4H1985-bH, 1.05; with 4H3974-bH, 0.298. Also, the interaction score in the experiment with 4H3277-bH is -0.392; in the experiment with 4H570-bH it was -1.69; with 4H1899-bH, 0.337.

On to DKLAAIKAKLAANKAKKAALKAKAAALKG [AP2-AA], for which the interaction score was -1.81 with GCN2_T; -1.59 with P12-AA; -1.6 in the experiment with AP7-AA; -1.62 with AP4-AA; -2.11 in the experiment with AP2-AA; -1.83 in the experiment with P4-AA. For the same molecule, the interaction score is -0.526 with P11-AA; -1.24 with AP5-AA; -1.74 with AP6-AA; -1.65 in the experiment with P9-AA; -1.95 with P3-AA; -1.75 with P7-AA. The interaction score with P10-AA is -1.76; with AP3-AA (mean of both orientations) it was -2.09; in the experiment with P2-AA it was -1.94; with AP8-AA, -1.71; with P8-AA it was -1.86; with P1-AA, 0.511.

DENQELKKKNEELKREIWELEKEIQELER [4H1985-bH]: the interaction score in the experiment with 4H3858-bH was -1.02; with 4H3497-bH, -0.884; with 4H3175-bH it was -0.853; in the experiment with 4H626-bH, -2.1; in the experiment with 4H3613-bH it was -1.08; with 4H3414-bH it was -0.255. The interaction score with 4H584-bH is -1.1; with 4H72-bH it was -0.781; with 4H906-bH it was -0.874; with 4H3817-bH, -0.0213; with 4H3638-bH it was -0.17; with 4H3162-bH it was -1.36. For the same molecule, the interaction score with 4H3628-bH is -0.631; in the experiment with 4H591-bH, -1.01; with 4H3462-bH, -0.482; with 4H3298-bH, -0.821; with 4H3129-bH it was -0.549; with 4H850-bH it was -0.707. The interaction score in the experiment with 4H3926-bH was -0.572; with 4H1985-bH, -2.13; with 4H3974-bH, 0.0704; in the experiment with 4H3277-bH, -0.449; with 4H570-bH, -0.979; in the experiment with 4H3172-bH it was -1.84. For the same molecule, the interaction score was -1.32 with 4H619-bH and 0.015 with 4H3631-bH.
